Assay results: patent US20190169310A1 (Amgen, published 2019)
Changes are numbered by the printed parent chain. Numbers in names are those of the source.

B1: scFv MP 9076-A9 (scFv)
scFv: QVQLVESGGGLVKPGGSLRLSCAASGFTFSDYYMYWVRQAPGKGLEWVAIISDGGYYTYYSDIIKGRFTISRDNAKNNLYLQMNSLRAEDTAVYYCARGFPLLRHGAMDYWGQGTLVTVSSGGGGSGGGGSGGGGSDIQMTQSPSSLSASVGDRVTITCKASQNVDTNVAWYQQKPGQAPKSLIYSASYRYSDVPSRFSGSASGTDFTLTISSVQSEDFATYYCQQYDSYPYTFGGGTKLEIK
notes: crude periplasmic extract from E. coli, His-tagged (His detection); also called PM76A9-HL
B2: scFv MP 9076-B10 (scFv)
scFv: B1 scFv with G16E, N78S, R87K
notes: crude periplasmic extract from E. coli, His-tagged; 610 read as B10; also called MP 9076-610; MP9076-610 (so in the source)
B3: A2J HLP (scFv)
scFv: EVQLLESGGGLVQPGGSLKLSCAASGFTFNVYAMNWVRQAPGKGLEWVARIRSKYNNYATYYADSVKKRFTISRDDSKNTAYLQMNNLKTEDTAVYYCVRHGNFGNSYLSWWAYWGQGTLVTVSSGGGGSGGGGSGGGGSELVVTQEPSLTVSPGGTVTLTCRSSTGAVTSGYYPNWVQQKPGQAPRGLIGATDMRPSGTPARFSGSLLGGKAALTLSGVQPEDEAEYYCALWYSNRWVFGGGTKLTVL
notes: crude periplasmic preparation; also called VH-VL-P of A2J
B4: E2M HLP (scFv)
scFv: B3 scFv with V31G, K68E, G102R, W112F
notes: crude periplasmic preparation; also called VH-VL-P of E2M
B5: scFv F1-A10 (scFv)
scFv: EVQLLESGGGLVQPGGSLRLSCAASGFTFSDFFMAWVRQAPGRGLEWVSTIVSDGGSTYYRDSVKGRFTISRDNSKNTLYLQMNSLRAEDTAVYYCARRGNSGYYVMDAWGQGTTVTVSSGGGGSGGGGSGGGGSDIQMTQSPSTLSASVGDRVTITCRASSSVTYMHWYQQKPGKAPKLLIYDTSKVASGVPSRFSGSGSGTEFTLTISSLQPDDFATYYCQQWSRNSPYTFGQGTKLEIK
notes: crude periplasmic extract from E. coli, His-tagged; also called PM F1-A10 HL

How the values were obtained:
human PSMA = biological target: T1, human PSMA (human, UniProt Q04609 1-750); assay: Pepscan ELISA, 15-mer peptides of the extracellular domain of human PSMA
T1 construct: whole, on cells; also called prostate-specific membrane antigen
T1 sequence (Q04609 whole entry, the tested form may be a part): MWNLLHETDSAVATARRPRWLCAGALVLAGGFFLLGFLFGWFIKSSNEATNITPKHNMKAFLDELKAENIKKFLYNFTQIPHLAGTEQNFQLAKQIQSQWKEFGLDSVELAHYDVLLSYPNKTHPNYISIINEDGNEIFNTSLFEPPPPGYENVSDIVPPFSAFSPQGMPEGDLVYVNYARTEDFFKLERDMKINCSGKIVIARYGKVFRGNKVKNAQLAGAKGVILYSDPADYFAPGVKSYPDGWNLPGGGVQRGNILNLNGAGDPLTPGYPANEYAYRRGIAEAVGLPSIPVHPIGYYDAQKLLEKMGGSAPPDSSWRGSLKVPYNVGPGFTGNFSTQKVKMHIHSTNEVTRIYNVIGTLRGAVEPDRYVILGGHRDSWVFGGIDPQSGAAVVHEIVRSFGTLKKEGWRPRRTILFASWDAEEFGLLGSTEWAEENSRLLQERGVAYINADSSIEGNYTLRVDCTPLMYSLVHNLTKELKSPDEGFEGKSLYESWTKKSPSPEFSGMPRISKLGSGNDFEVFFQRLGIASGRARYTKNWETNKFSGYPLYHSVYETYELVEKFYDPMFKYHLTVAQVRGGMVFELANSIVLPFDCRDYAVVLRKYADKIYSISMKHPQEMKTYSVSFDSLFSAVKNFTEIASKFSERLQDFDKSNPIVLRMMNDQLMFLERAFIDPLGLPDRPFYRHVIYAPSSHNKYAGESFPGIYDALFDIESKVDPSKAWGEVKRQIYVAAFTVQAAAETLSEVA
Description: These three PSMA BiTE antibodies were subjected to an alternative epitope mapping approach based on peptide scanning (Pepscan). Pepscan uses overlapping peptides of a given protein and analyses antibody binding to immobilized peptides by enzyme-linked immunosorbent assays (ELISAs). The epitope mapping experiments with PSMA BiTE antibodies were performed at the company Pepscan (Lelystad, The Netherlands).
These peptides were coated to ELISA wells in a 384-well plate format. […] To this end 7 ml of crude periplasmic extracts were shipped on dry ice to Pepscan (The Netherlands). Using scFv counterparts in this assay minimized the risk to pick up signals from the second non-PSMA binding specificity of the BiTE antibodies, which may lead to misinterpretation of the PSMA binding epitopes of the target binders. The scFvs were incubated with the peptides and specific binding detected using an anti-His antibody. Binding signals were measured in a 384-well ELISA reader.

1-27 CD3-Fc = biological target: T2, 1-27 CD3-Fc (human); assay: ELISA, periplasmic scFv on captured 1-27 CD3-Fc
T2 construct: assigned to this molecule; also called 1-27 CD3ε-Fc; 27 aa huCD3E

human 1-27 CD3ε-EpCAM = biological target: T3, human 1-27 CD3ε-EpCAM (human); assay: FACS, 293-HEK transfectants
T3 construct: also called 1-27 CD3-EpCAM comprising the human 27 mer
T3 chain: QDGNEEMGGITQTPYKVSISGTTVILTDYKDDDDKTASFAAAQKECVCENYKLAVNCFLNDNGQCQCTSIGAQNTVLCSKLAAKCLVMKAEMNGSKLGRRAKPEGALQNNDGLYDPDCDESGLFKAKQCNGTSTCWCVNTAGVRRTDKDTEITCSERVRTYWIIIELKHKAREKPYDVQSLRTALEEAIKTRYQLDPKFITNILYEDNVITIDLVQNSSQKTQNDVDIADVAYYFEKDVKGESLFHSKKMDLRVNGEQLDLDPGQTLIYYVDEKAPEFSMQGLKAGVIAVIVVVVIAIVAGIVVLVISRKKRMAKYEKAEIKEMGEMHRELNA

marmoset 1-27 CD3ε-EpCAM = biological target: T4, marmoset 1-27 CD3ε-EpCAM (Callithrix jacchus); assay: FACS, 293-HEK transfectants
T4 construct: also called 1-27 CD3-EpCAM comprising the marmoset 27 mer
T4 chain: T3 chain with G9D, I10T, T13N, I25T

tamarin 1-27 CD3ε-EpCAM = biological target: T5, tamarin 1-27 CD3ε-EpCAM (Saguinus oedipus); assay: FACS, 293-HEK transfectants
T5 construct: also called 1-27 CD3-EpCAM comprising the tamarin 27 mer
T5 chain: T3 chain with G9D, I10T, T13N, I25T

[1] = biological target: T6, squirrel monkey 1-27 CD3ε-EpCAM (Saimiri sciureus); assay: FACS, 293-HEK transfectants
T6 construct: also called 1-27 CD3-EpCAM comprising the squirrel monkey 27 mer
T6 chain: T3 chain with M7I, G9D, I10T, T13N, I25T

swine 1-27 CD3ε-EpCAM = biological target: T7, swine 1-27 CD3ε-EpCAM (Sus scrofa); assay: FACS, 293-HEK transfectants
T7 construct: negative control; also called 1-27 CD3-EpCAM comprising the swine 27 mer
T7 chain: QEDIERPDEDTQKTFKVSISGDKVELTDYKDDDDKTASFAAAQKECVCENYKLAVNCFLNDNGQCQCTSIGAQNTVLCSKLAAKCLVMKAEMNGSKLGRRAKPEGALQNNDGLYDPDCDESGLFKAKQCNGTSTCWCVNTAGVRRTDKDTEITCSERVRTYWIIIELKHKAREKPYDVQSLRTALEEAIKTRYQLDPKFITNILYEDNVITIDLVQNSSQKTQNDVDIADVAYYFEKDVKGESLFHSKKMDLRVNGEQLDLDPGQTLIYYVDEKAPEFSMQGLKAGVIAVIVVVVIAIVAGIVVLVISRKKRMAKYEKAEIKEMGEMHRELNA

Binder	binding result (human PSMA)	binding result (1-27 CD3-Fc)	also measured
B1	binds		
B2	binds		
B3		binds	
B4		binds	binding result (human 1-27 CD3ε-EpCAM): binds; binding result (marmoset 1-27 CD3ε-EpCAM): binds; binding result (tamarin 1-27 CD3ε-EpCAM): binds; binding result [1]: binds; binding result (swine 1-27 CD3ε-EpCAM): no binding
B5	binds		
